According to publication PMC9457330 (Proceedings of the National Academy of Sciences of the …, 2022):

Molecular target: the molecule itself
Assay: native gel or EMSA

B1: SLC25A11 (endogenous, mouse) (natural protein, UniProt Q9CR62 1-314, looked up)
chain: MAATASPGAGRMDGKPRTSPKSVKFLFGGLAGMGATVFVQPLDLVKNRMQLSGEGAKTREYKTSFHALTSILKTEGLKGIYTGLSAGLLRQATYTTTRLGIYTVLFERLTGADGTPPGFLLKALIGMTAGATGAFVGTPAEVALIRMTADGRLPADQRRGYKNVFNALVRIAREEGVPTLWRGCIPTMARAVVVNAAQLASYSQSKQFLLDSGYFSDNILCHFCASMISGLVTTAASMPVDIVKTRIQNMRMIDGKPEYKNGLDVLLKVVRYEGFFSLWKGFTPYYARLGPHTVLTFIFLEQMNKAYKRLFLSG
stoichiometry N: 2
